For 135 substances, amyloid nucleation score results are on record in the supplement of paper PMC12042874.

± gives the uncertainty stated by the source.

A short description of this series: amyloid nucleation score (Sup35N fusion, yeast selection) (log enrichment); library NNK3; higher = more nucleation; inactive = no reads after selection. The method, boiled down:
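Using DiMSum, nucleation scores were taken as the log enrichment of output over input reads, centred on the mode score of non-aggregating sequences. The input and output reads came from Illumina sequencing of plasmid inserts, with sequences under 100 input reads excluded. The yeast were psi-negative, expressed Sup35N fused to peptides of 20 random codons, were induced with 100 μM copper sulfate for 24 hours, and were grown 7 days at 30°C on medium lacking adenine and uracil.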
On to RDNVFCVDVDICILVVR, for which the amyloid nucleation score entry is “inactive”.

For ILSLTFCVRRGEHGMASFCL, the amyloid nucleation score amounted to 0.07 ± 0.46.

On to YNKGRNY, for which the amyloid nucleation score entry was “inactive”.

In the case of NVTNSRHHLQFGYMRAMVNV, the amyloid nucleation score entry is “inactive”.

Consider IYLLYNPCFRMRYLFCMLRG, for which the amyloid nucleation score entry was “inactive”.

Regarding QTSIPGFDTTTLRVPLAFFG, the amyloid nucleation score entry is “inactive”.

For AKFARYSTYLPLLSVHDIND, the amyloid nucleation score result is “inactive”.

Take AYINTRYGFFGNLVDDTKSS: the amyloid nucleation score result is “inactive”.

As for LFRLYRLL, the amyloid nucleation score entry is “inactive”.

VSVLMGAWDLMWMPGKS came in with an amyloid nucleation score of 1.08 ± 0.14.

Consider ALRRVMVICLFKLDSEAHST, for which the amyloid nucleation score entry was “inactive”.

As to SLPWVIF, the amyloid nucleation score entry is “inactive”.

Take KVFWHDVILTCG: the amyloid nucleation score result was “inactive”.

Consider NFSTRTGIITIGFCRVCGMR, for which the amyloid nucleation score is 1.97 ± 0.096.

For SSCRETTLEFAMGGTTVHLQ, the amyloid nucleation score result was “inactive”.

For the substance VCTVQCFEKIEL, the amyloid nucleation score result was “inactive”.

With IIVTL, the amyloid nucleation score result is “inactive”.

Take SIVHGMA: the amyloid nucleation score entry was “inactive”.

Regarding GVMMVMFARL, the amyloid nucleation score is 1.73 ± 0.091.

For the substance HMFSGVG, the amyloid nucleation score result is “inactive”.

On to VNWSSFIFESTSIFS, for which the amyloid nucleation score came to 0.476 ± 0.28.

In turn, NLTGCMDLC yielded an amyloid nucleation score of 0.853 ± 0.19.

PAQLHNTVHL: the amyloid nucleation score entry is “inactive”.

Turning to KVCVLVDMHSGHTVHWGLMC, the amyloid nucleation score entry is “inactive”.

With GYQLRRMMQTMRMKYRISSR, the amyloid nucleation score result was “inactive”.

For KLQNCVKTDLHA, the amyloid nucleation score result is “inactive”.

As to FRFGSVELLEAGTIQ, the amyloid nucleation score stood at 0.043 ± 0.63.

Take RFGFS: the amyloid nucleation score result is “inactive”.

As to QRYVLSCRALTGDTCWRKSG, the amyloid nucleation score result is “inactive”.

As to VWLCSLLQITFIYAEVTVSL, the amyloid nucleation score result was “inactive”.

For the substance CCKTFYY, the amyloid nucleation score result was “inactive”.

As for TRVLSTSGFNQRPNCWFSTM, the amyloid nucleation score entry was “inactive”.

On to LFGDMIMVSSCWSKRNCSVA, for which the amyloid nucleation score entry is “inactive”.

For QHYDDSNRFYNK, the amyloid nucleation score entry was “inactive”.

With DWVGRYSVSMWILIGRGSLW, the amyloid nucleation score entry was “inactive”.

In turn, SVYNSYWKVQYRVVMS returned an amyloid nucleation score of 0.506 ± 0.21.

In the case of RTKYSQYHTGVSFDGSMHYS, the amyloid nucleation score entry was “inactive”.

QWTQFIELLCYCYG returned an amyloid nucleation score of 1.87 ± 0.11.

Take FRSVTTVVNVEKVRVY: the amyloid nucleation score result is “inactive”.

For HFKFLYDS, the amyloid nucleation score entry is “inactive”.

As for WYSTEM, the amyloid nucleation score result is “inactive”.

As to YVRSHHNMNRTMVFKTCPWQ, the amyloid nucleation score entry is “inactive”.

With CMLSPV, the amyloid nucleation score result is “inactive”.

Consider EGHHPVGGGLLIFASLT, for which the amyloid nucleation score result is “inactive”.

As to NVYSPKRVLSGCLSPDISEF, the amyloid nucleation score result is “inactive”.

In the case of LFMYMMPQGPSVTANMELVI, the amyloid nucleation score is -0.742 ± 1.1.

Take LVHLEVGQGSSVVEHLRCVL: the amyloid nucleation score result was “inactive”.

As for EQMWFEVCYGCRSCSEALLR, the amyloid nucleation score result is “inactive”.

As for KWWCHLWVIGVGFALGLYTG, the amyloid nucleation score entry was “inactive”.

DDRSP: the amyloid nucleation score entry was “inactive”.

CVNLRNIRFSTLRGMGGWI: the amyloid nucleation score entry was “inactive”.

On to KPVLVVVSNLIPWSYPE, for which the amyloid nucleation score came to 2.25 ± 0.085.

Regarding ICKRYYLPINFRG, the amyloid nucleation score entry is “inactive”.

Regarding YSFHLIIESPKLVLFTHFTS, the amyloid nucleation score result is “inactive”.

As to SVNWWTVLCVHCPGYKNLLI, the amyloid nucleation score came out at 0.465 ± 0.26.

Turning to LPFNGTGTAWCSAGAQLFGR, the amyloid nucleation score was 0.837 ± 0.15.

In the case of TNRIHPFERVLFVCVSGQGV, the amyloid nucleation score result is “inactive”.

Turning to SIPRRNRDGLAWNARHNLQY, the amyloid nucleation score entry was “inactive”.

For the substance TLDLSHTMVCRLEYFSSAIG, the amyloid nucleation score entry was “inactive”.

In the case of YLYGGVLGVSSDEGLADGKD, the amyloid nucleation score entry is “inactive”.

Consider VLCFI, for which the amyloid nucleation score result was “inactive”.

On to DIEYEY, for which the amyloid nucleation score entry was “inactive”.

Turning to GPLESIFNQFAVIATVPRVW, the amyloid nucleation score entry is “inactive”.

On to PNGALK, for which the amyloid nucleation score result is “inactive”.

For PVWLCSLPR, the amyloid nucleation score entry is “inactive”.

Regarding MIMINVISQCKCAGWGGNRA, the amyloid nucleation score turned out to be 3.36 ± 0.053.

Turning to LMFEL, the amyloid nucleation score result was “inactive”.

Turning to SIFIFYRYVFWRFMCDAVFS, the amyloid nucleation score entry was “inactive”.

With LSTSL, the amyloid nucleation score result was “inactive”.

EFYGVVSRVPYERTPGTKVE: the amyloid nucleation score result is “inactive”.

As for FVKCFNGAFWNEGPFCYLCG, the amyloid nucleation score is 0.331 ± 0.32.

Consider SSVGTAFLYYRKYGICADG, for which the amyloid nucleation score entry was “inactive”.

For the substance IFYVLSTMNDSIVV, the amyloid nucleation score entry is “inactive”.

In the case of GCFNSCILYVLRLSIASVVS, the amyloid nucleation score entry was “inactive”.

Take ECYVR: the amyloid nucleation score result is “inactive”.

As for YEIYQFSYPRFWKYQCNCSS, the amyloid nucleation score entry was “inactive”.

For the substance LPWTLGVFGLMY, the amyloid nucleation score entry was “inactive”.

As to PTFVPARSRYSLNVFNPLDE, the amyloid nucleation score entry is “inactive”.

As to RMFICSQYWFVWVKLPPCGL, the amyloid nucleation score result is “inactive”.

As to RVATGVVCMM, the amyloid nucleation score result was “inactive”.

MLCRPTGRGLDGQCERLTVR: the amyloid nucleation score entry was “inactive”.

Regarding IDVKMGSYFVYHDGLFIFRV, the amyloid nucleation score entry is “inactive”.

Substance DAPSFLSMSRFAFYNFNLYW gave an amyloid nucleation score of 1.29 ± 0.12.

CQFVKVMCLHSYILRPSPPP: the amyloid nucleation score result was “inactive”.

As for SSGVEAGVSRMMLQ, the amyloid nucleation score result is “inactive”.

With FRSAYDYNFC, the amyloid nucleation score entry is “inactive”.

Turning to NSRHLDIFRMFDNFSVCHQP, the amyloid nucleation score result is “inactive”.

FDVNIPFCSNSFSYHTNSGS: the amyloid nucleation score entry is “inactive”.

The substance MWKDLVVCL displayed an amyloid nucleation score of 0.175 ± 0.88.

As for RSGHRGHYKFEL, the amyloid nucleation score result is “inactive”.

With WYRYFGCEDP, the amyloid nucleation score entry is “inactive”.

Turning to SNSMS, the amyloid nucleation score entry is “inactive”.

Regarding CNGFTVGWPWGRRLRDPPGH, the amyloid nucleation score is -0.598 ± 2.4.

As to KTIGILLNCIGWFVVGLPGS, the amyloid nucleation score stood at 0.863 ± 0.21.

Consider AVGKM, for which the amyloid nucleation score was -0.082 ± 0.88.

For VPGDEHRDGKLGAKWWTCRR, the amyloid nucleation score entry was “inactive”.

As to LVTGNVYVF, the amyloid nucleation score result is “inactive”.

Take SAWQPWMKDRSS: the amyloid nucleation score result was “inactive”.

As for MSSACGWEEVIGCLEVMRIG, the amyloid nucleation score result was “inactive”.

Take TWGIG: the amyloid nucleation score result is “inactive”.

With LILNYGGLPWFIPIP, the amyloid nucleation score result is “inactive”.

Regarding PFNLPMARNETWGTVQAKIR, the amyloid nucleation score result was “inactive”.

Turning to QNLDSMRGGIRSLLVIIRKS, the amyloid nucleation score result was “inactive”.

With GLPFLSTMELLLLLMSKTMR, the amyloid nucleation score result is “inactive”.

For the substance LFNTRERRYMEWPTAWRLRR, the amyloid nucleation score result is “inactive”.

For NLNGFYSRGVIFR, the amyloid nucleation score entry is “inactive”.

Take GFTVG: the amyloid nucleation score result is “inactive”.

With WEPYTCIYC, the amyloid nucleation score result was “inactive”.

For RISRNGCGCGILYVIIRN, the amyloid nucleation score entry was “inactive”.

MSYINRAPFAMSGLFCAWFD: the amyloid nucleation score entry is “inactive”.

Regarding CWRCFSAD, the amyloid nucleation score is 0.041 ± 0.6.

On to NYICVK, for which the amyloid nucleation score result is “inactive”.

TIFVTTR: the amyloid nucleation score result was “inactive”.

On to RLPSREIVHCVQNSGRNPVG, for which the amyloid nucleation score was found to be 0.079 ± 0.35.

In the case of GTSAH, the amyloid nucleation score result is “inactive”.

WVCDRLGRVSLILRL had an amyloid nucleation score of 1.06 ± 0.2.

For the substance FVDLHCSYRCIYGCCHFRIR, the amyloid nucleation score result was “inactive”.

As to TWNVPWE, the amyloid nucleation score result was “inactive”.

LCLMDRGYVS: the amyloid nucleation score was -0.779 ± 1.4.

Turning to RQFVIFYYSLIGHVNSWLRP, the amyloid nucleation score result is “inactive”.

Consider RGDVLRFTWCSEPGCQRRTT, for which the amyloid nucleation score result is “inactive”.

Take LVTETLFYCH: the amyloid nucleation score result is “inactive”.

As for VCRDSVILLDLLGAMCVVYG, the amyloid nucleation score result was “inactive”.

Regarding YPCYLLMGAVLSKPYLTSYV, the amyloid nucleation score result was “inactive”.

Take NTVEPLYCCCSNRCISVSYV: the amyloid nucleation score entry was “inactive”.

Take LFATAEPMLRWVRSRLV: the amyloid nucleation score entry was “inactive”.

As to DALIRY, the amyloid nucleation score entry is “inactive”.

Take EDGLGSYFNKKVNATCLNLA: the amyloid nucleation score result is “inactive”.

Consider HLGFVEYAAKYTMVVCGRAV, for which the amyloid nucleation score result was “inactive”.

For the substance IWPWSFALIMS, the amyloid nucleation score entry is “inactive”.

For VVKYSSRCSKVRICLSRWVW, the amyloid nucleation score entry was “inactive”.

On to IIYPAMTHFLSYMYRVNCVS, for which the amyloid nucleation score result is “inactive”.

Turning to VFRAGWPVWALDYELYSVRA, the amyloid nucleation score entry was “inactive”.

Consider DGCVEELWRGRVLMKMFTHS, for which the amyloid nucleation score entry is “inactive”.

As to QHALCSTAIRILLSV, the amyloid nucleation score result was “inactive”.
